{"source": "paper PMC12681835", "experiment_in_all_cases": "co-IP; HEK293 cells co-transfected with AnkB-220-HA (WT or mutant) and NrCAM plasmids in equimolar amounts; Brij98 lysate diluted in PBS, 0.1% TritonX-100; AnkB-HA precipitated with mouse anti-HA on Protein A/G magnetic beads overnight at 4 °C; blot for NrCAM, reprobed with anti-HA; NrCAM/AnkB ratio by densitometry", "key": {"[1]": {"target": "AnkB-220-HA A373V (maternally inherited ASD missense mutation) (human)"}, "[2]": {"target": "AnkB-220-HA H374A (human)"}, "[3]": {"target": "AnkB-220-HA H374W (human)"}, "[4]": {"target": "AnkB-220-HA R297E (human)"}, "[5]": {"target": "AnkB-220-HA R308E (human)"}}, "data": [{"substance": "Neuron-glial related L1-CAM (NrCAM), mouse, WT (natural protein)", "values": [{"measurement": "fold increase of co-immunoprecipitation compared to WT AnkB", "setting": "[1]", "result": 1.7, "unit": "fold"}, {"measurement": "percent decrease of co-immunoprecipitation compared to WT AnkB", "setting": "[2]", "result": 80, "unit": "%"}, {"measurement": "percent decrease of co-immunoprecipitation compared to WT AnkB", "setting": "[3]", "result": 80, "unit": "%"}, {"measurement": "percent decrease of co-immunoprecipitation compared to WT AnkB", "setting": "[4]", "result": 60, "unit": "%"}, {"measurement": "percent decrease of co-immunoprecipitation compared to WT AnkB", "setting": "[5]", "result": 90, "unit": "%"}]}]}
